Here are results for two molecules from paper PMC5344332, “A new mode of DNA binding distinguishes Capicua from other HMG-box factors and explains its mutation patterns in cancer”.

Data set [1] deals with T1, Hs CIC HMG-C1-His (Homo sapiens, UniProt Q96RK0-2;Q96RK0-2 188-288;1451-1527). Put plainly: EMSA; 60 mM Hepes pH 7.9, 20 mM Tris-HCl pH 7.9, 300 mM KCl, 5 mM EDTA, 5 mM DTT, 12% glycerol, 1 ug poly(dI-dC), 1 ug BSA, ~1 ng probe in 20 ul; 20 min on ice; 5% native PAGE in 0.5X TBE at 4 C. Conditions: protein: recombinant; tags: His; copies: 1;1; label: 32P.
Data set [2] addresses T1, Hs CIC HMG-C1-His. Put plainly: EMSA; similar affinity to longer probes; 60 mM Hepes pH 7.9, 20 mM Tris-HCl pH 7.9, 300 mM KCl, 5 mM EDTA, 5 mM DTT, 12% glycerol, 1 ug poly(dI-dC), 1 ug BSA, ~1 ng probe in 20 ul; 20 min on ice; 5% native PAGE in 0.5X TBE at 4 C. Conditions: protein: recombinant; tags: His; copies: 1;1; label: 32P.

T1 sequence (Q96RK0 1097-1197, chain 1 of 2): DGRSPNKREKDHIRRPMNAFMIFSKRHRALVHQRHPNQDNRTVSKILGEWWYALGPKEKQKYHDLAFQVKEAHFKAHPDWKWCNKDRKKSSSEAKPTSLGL
T1 sequence (Q96RK0 2360-2436, chain 2 of 2): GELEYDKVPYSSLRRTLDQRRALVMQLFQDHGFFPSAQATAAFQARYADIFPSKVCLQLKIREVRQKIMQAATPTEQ

B1: CBS syn (dsDNA)
DNA 1: GGGAATTAAGTTGAATGAATAGGCTGGGCC
DNA 2: GGCCCAGCCTATTCATTCAACTTAATTCCC
With B1, the binding result with Hs CIC HMG-C1-His [1] is “binds”.

B2: ETV5 18-bp CBS (dsDNA)
DNA 1: GGTTATGAATGAAAAACC
DNA 2: GGTTTTTCATTCATAACC
As to B2, the binding result with Hs CIC HMG-C1-His [2] is “binds”.
